# Measured values published in US20220204592A1 (VISTERRA, published 2022).
# Where two headings read alike, the source gives them in different places.
# B1: Ab A18 (antibody, V domains shown)
# VH: EVQLLESGGGLVKPGQSLKLSCAASGFTFTSYGMHWVRQPPGKGLEWVAVISYDGSYKYYADSVQGRFTISRDNSKNTLYLQMNSLRAEDTAVYYCAKDSRLRSLLYFEWLSQGYFNPWGAGTTLTVSS
# VL: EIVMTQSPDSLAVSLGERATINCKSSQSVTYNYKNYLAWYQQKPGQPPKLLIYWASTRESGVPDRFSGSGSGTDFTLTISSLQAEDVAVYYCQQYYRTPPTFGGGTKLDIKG
# B2: Ab 032 (antibody, V domains shown)
# VH: QVQLLETGGGLVKPGQSLKLSCAASGFTFTSYAMHWVRQPPGKGLEWVAVVSYDGNYKYYADSVQGRFTISRDNSKNTLYLQMNSLRAEDTAVYYCAKDSRLRSLLYFEWLSQGYFNPWGQGTTLTVSS
# VL: DIQMTQSPSSLSASVGDRVTITCRSSQSITFNYKNYLAWYQQKPGKAPKLLIYWGSYLESGVPSRFSGSGSGTDFTLTISSLQPEDFATYYCQQHYRTPPSFGQGTKVEIK
# B3: Ab 044 (antibody, V domains shown)
# VH: QVQLLETGGGLVKPGQSLKLSCAASGFTFTSYAMHWVRQPPGKGLEWVAVVSYDGNYKYYADSVQGRFTISRDNSKNTLYLQMNSLRAEDTAVYYCAKDSRLRSLLYFEWLSQGYFNPWGQGTTLTVSS
# VL: DIQMTQSPSSLSASVGDRVTITCRSSQSITFDYKNYLAWYQQKPGKAPKLLIYWGSYLESGVPSRFSGSGSGTDFTLTISSLQPEDFATYYCQQHYRTPPSFGQGTKVEIK
# Experiments:
# [1] = biological target: H3 hemagglutinin of H3N2 strain X-31 (influenza A virus X-31 (H3N2), UniProt P03437 17-566); assay: cell-based or functional assay
# [2] = biological target: T1, H1 hemagglutinin (A/Solomon Islands/3/2006) (influenza A virus A/Solomon …); assay: ELISA on coated HA, relative Kd (4-parameter fit)
# [3] = biological target: T1, H1 hemagglutinin (A/Solomon …); assay: ELISA on coated HA, relative Kd (4-parameter fit); remark: listed apart in the source
# [4] = biological target: H3 hemagglutinin (A/Fujian/411/2003) (influenza A virus A/Fujian/411/2003 …); assay: cell-based or functional assay
# [5] = biological target: H5 hemagglutinin (A/Duck/MN/1525/81) (influenza A virus A/Duck/MN/1525/81 …); assay: cell-based or functional assay
# [6] = biological target: H1 hemagglutinin (A/California/04/2009) (influenza A virus A/California/04/2009 …); assay: cell-based or functional assay
# [7] = biological target: H1 hemagglutinin of H1N1 Solomon Islands (isolate not specified); assay: cell-based or functional assay
# [8] = biological target: H3 hemagglutinin (A/Shangdong/09/93) (influenza A virus A/Shangdong/09/93 …); assay: cell-based or functional assay
# [9] = biological target: T2, H1 hemagglutinin (A/Solomon Islands/20/1999) (influenza A virus A/Solomon …); assay: ELISA on coated HA
# T2 construct: ELISA antigen
binder,measurement,setting,value
B1,"IC50 (RT-PCR, neutralisation)",[1],0.4 µg/mL
same,Kd,[2],0.144 nM
B2,Kd,[3],< 0.025 nM
B3,"EC50, Neutral Red (CPE inhibition)",[4],0.3 µg/mL
same,"EC50, Neutral Red (CPE inhibition)",[5],1.5 µg/mL
same,"EC50, Neutral Red (CPE inhibition)",[6],5.1 µg/mL
same,"EC50, Neutral Red (CPE inhibition)",[7],1.2 µg/mL
same,"EC50, Neutral Red (CPE inhibition)",[8],0.6 µg/mL
same,Kd,[9],< 0.5 nM
